Results as given in US20220025032A1 (Novartis, published 2022).
Residue numbers refer to the chain shown, from its start. Read-outs that look alike come from different tables or passages of the source. Blank lines part the entries; values can stand above or below the binder they belong to.

Tests used:
Human BTC [1] = target: T1, Human BTC (human, UniProt P35070 32-111); assay: SPR Biacore T200, anti-Fab capture, antigen as analyte
T1 construct: Soluble human BTC of the Biacore, ELISA, MSD and cell assays; also called human betacellulin; soluble human BTC
T1 sequence: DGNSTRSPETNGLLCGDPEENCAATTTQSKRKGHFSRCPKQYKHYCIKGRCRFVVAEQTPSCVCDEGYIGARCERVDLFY

Human VEGF165 [2] = target: T2, Human VEGF165 (human, UniProt P15692 27-191); assay: as above
T2 construct: mature; biotinylated in the VEGFR2 ELISAs; also called human VEGF-A; VEGF-A

[3] = target: T3, membrane-bound human BTC on 293F-hBTC cells (human, UniProt P35070 32-111); assay: flow cytometry on 293F cells with membrane-bound human BTC; y axis % Pos Binding
T3 construct: the transfected construct is not described; also called membrane-anchored BTC
T3 sequence: T1 sequence
Description: After washing the cells, the cells were dissociated using Versene at 37° C. The cells were washed with FACS buffer and plated at 100 μl in a 96 well plate using cells at 1×10⁶ cells/ml. Then 100 μl of a serial dilution of antibodies starting at 50 nM was used. The cells were incubated, washed and then treated with the secondary anti-human Fab-FITC antibody. The antibodies only bound to the cells expressing BTC. After which the cells were washed and analyzed on the Attune Flow Cytometry. All data analysis was carried out using Flow Jo software.
In FIG. 6A, Flow cytometry was used to assess the binding of NVS11 to membrane-bound BTC using an anti-human Fab antibody for detection.

Human BTC-avitag-biotin [4] = target: T4, Human BTC-avitag-biotin (human, UniProt P35070 32-111, biotin on the avitag); assay: flow cytometry: inhibition of biotin-BTC binding to HKB11 cells over-expressing ErbB1; y axis Fluorescent Intensity
T4 construct: also called biotin-BTC; soluble human BTC-avitag-biotin
T4 sequence: T1 sequence
Description: (§1) In order to assess potency of the Fabs and bispecific in neutralizing binding of BTC to its receptor Erb 1 or ErbB4, the following assay was performed. HKB11 over-expressing either ErbB1 or ErbB4 cells were plated 1×10⁵ cells/well. Cells were washed once with FACS buffer by spun down at 1200 rpm for 5 minutes and supernatant removed. Next, the Fab sample dilutions and BTC were prepared in FACS buffer. Human BTC-avitag-biotin was diluted to a fixed concentration of 15 nM. The test Fab samples were prepared at a starting concentration of 40 nM and titrated for 9 points at a serial dilution of 1:2. Both biotin-BTC and the test Fab samples are incubated for 30 minutes at room temperature. The pre-incubated samples were then added to the cell plate at 100 μl per well in duplicate and incubated for 1 hour on ice. The plate was then washed once in FACS buffer and spun down at 1200 rpm for 5 minutes and supernatant removed. After suspending the cell pellet with 100 μl/well of diluted secondary antibody streptavidin-Alexa Fluor488 (1:2000) in FACS buffer, the cells were then incubated for 60 min on ice. The cells were washed once with FACS buffer and re-suspended in 120 μl of FACS buffer for flow cytometric analysis.
(§2) Measurements were performed on Attune Flow Cytometry machine. Data were analysed using the Flow Jo software. The live cell populations analysed were gated in forward and side scattering (FSC-A/SSC-A dot plot). The interval gate was established on the control histogram, which was obtained with sample incubated in streptavidin-Alexa Fluor488 only, and subsequently, determined percent of positive binding events of cells carrying membrane-bound receptor ErbB1 or ErbB4 and biotin-BTC. The median of fluorescence intensity (MFI) value was also derived for the live cell population. MFI values were then used to calculate for percent inhibition of test sample and subsequently plotted in GraphPad Prism 7.03 using nonlinear regression (curve fit) model to generate IC50 value.

Human BTC-avitag-biotin [5] = target: T4, Human BTC-avitag-biotin; assay: flow cytometry: inhibition of biotin-BTC binding to HKB11 cells over-expressing ErbB4; y axis Fluorescent Intensity
Description: as §1, §2

Human BTC [6] = target: T1, Human BTC; assay: SPR (Biacore/ProteOn)
Mouse BTC = target: T5, Mouse BTC (mouse, UniProt Q05928 32-111, limits assumed); assay: SPR (Biacore/ProteOn)
T5 sequence (looked up): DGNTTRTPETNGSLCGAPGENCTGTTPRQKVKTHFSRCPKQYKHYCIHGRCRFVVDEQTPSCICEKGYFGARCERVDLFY

Cyno BTC = target: T6, Cyno BTC (cynomolgus, UniProt A0A2K5X5E5 32-111); assay: SPR (Biacore/ProteOn)
T6 construct: also called cynomolgus BTC
T6 sequence: T1 sequence with E19D, A56T

Rat BTC = target: T7, Rat BTC (rat, UniProt Q9JJM4 32-111); assay: SPR (Biacore/ProteOn)
T7 sequence: T5 sequence (looked up) with V31S, V55M, R75Q

Rabbit BTC = target: T8, Rabbit BTC (rabbit, UniProt G1SJ89 32-111); assay: SPR (Biacore/ProteOn)
T8 sequence: T1 sequence with D1S, L14S, D17Y, E19G, A23T, T27V, S29P, V63I, I69T

Human BTC [7] = target: T1, Human BTC; assay: cell-based or functional assay
[8] = target: T3, membrane-bound human BTC on 293F-hBTC …; assay: cell-based or functional assay
Human VEGF165 [9] = target: T2, Human VEGF165; assay: SPR Biacore T200, anti-Fab capture
Human BTC [10] = target: T1, Human BTC; assay: MSD-based inhibition of BTC binding to ErbB1
Human BTC [11] = target: T1, Human BTC; assay: MSD-based inhibition of BTC binding to ErbB4
Human BTC [12] = target: T1, Human BTC; assay: cell-based inhibition of BTC binding to ErbB1
Human BTC [13] = target: T1, Human BTC; assay: cell-based inhibition of BTC binding to ErbB4
[14] = target: T3, membrane-bound human BTC on 293F-hBTC …; assay: flow cytometry, 293F cells with BTC against 293F
Human VEGF165 [15] = target: T2, Human VEGF165; assay: competition ELISA: antibody pre-incubated with 400 pM VEGF-biotin, added to coated VEGFR2, streptavidin-HRP detection; y axis OD
Description: (§3) The plates were then washed 3 times using 1λTBST. The plates were blocked in 2% BSA diluent (0.1% Tween 20/0.1% TirtonX100) overnight. After blocking, the plates were washed 3 times using TB ST and then the sample mixture was added at 20 μl/well. The sample mixture consisted a final fixed concentration of VEGF-biotin (in-house) at 400 pM and a 15 point 1:2 serial dilution of the antibody starting at 20 nM. The sample mixture was pre-incubated for 1 hour prior to adding to the plate and then incubated for another hour at room temperature on the plate. Afterwards, the plate was washed 3 times using TBST and 20 μl/well of Streptavidin-HRP diluted at 1:5000 was added for an incubation time of 1 hour. The plates were washed 3 times in TBST and then 20 μl/well of TMB substrate was added. TMB is a chromogen that yields a blue color when oxidized. TMB was incubated for 10 minutes until the signal saturated in the no antibody samples, and then 10 μl/well of 2N sulfuric acid was added which then changes the blue color to yellow and this now has a maximum absorbance at 450 nm.

Human VEGF165 [16] = target: T2, Human VEGF165; assay: as above; remark: listed apart in the source
Description: as §3

T2 sequence (P15692 other isoform, or with tags, fused parts or gaps): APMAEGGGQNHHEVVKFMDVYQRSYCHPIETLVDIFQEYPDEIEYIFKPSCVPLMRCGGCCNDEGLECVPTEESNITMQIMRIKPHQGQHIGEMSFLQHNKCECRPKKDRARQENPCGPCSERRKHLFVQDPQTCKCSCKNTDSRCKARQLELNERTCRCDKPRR

B2: NVS2 (Fab, V domains shown)
VH: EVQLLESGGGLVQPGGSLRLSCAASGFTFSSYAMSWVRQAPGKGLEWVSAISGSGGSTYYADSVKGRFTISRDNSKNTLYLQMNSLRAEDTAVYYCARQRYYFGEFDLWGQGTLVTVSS
VL: SYELTQPPSVSVSPGQTASITCSGDKLGDKYAYWYQQKPGQSPVLVIYQDSKRPSGIPERFSGSNSGNTATLTISGTQAEDEADYYCQAFDYLYSLGVFGGGTKLTVLG
notes: also called Fab NVS2; anti-BTC Fab
Kd (Human BTC [6]): 0.014 nM
Kd (Mouse BTC): 9 pM
Kd (Cyno BTC): 0.016 nM
Kd (Rat BTC): 0.021 nM
Kd (Rabbit BTC): 5 pM
A431 pERK (IC50 in nM) (Human BTC [7]): 0.37 nM
ADR/Res pErbB3 (IC50 in nM) (Human BTC [7]): 6.3 nM
inhibition (Human BTC [7]): 99.7%
Neutralization of juxtacrine signaling [8]: 90%
binding result (Human VEGF165 [9]): no binding
MSD-based binding inhibition BTC/ErbB1 (Human BTC [10]): > 90%
MSD-based binding inhibition BTC/ErbB4 (Human BTC [11]): > 90%
Cell-based binding inhibition BTC/ErbB1 (Human BTC [12]): > 90%
Cell-based binding inhibition BTC/ErbB4 (Human BTC [13]): > 90%
Binding to membrane-anchored BTC (median, X above 293F) [14]: > 10 X above 293F
Kd (Human BTC [1]): 4.7 pM
EC50 [3]: 0.256 nM
IC50 (Human BTC-avitag-biotin [4]): 1.73 nM
IC50 (Human BTC-avitag-biotin [5]): 1.83 nM

B4: NVS12 (bispecific antibody)
heavy: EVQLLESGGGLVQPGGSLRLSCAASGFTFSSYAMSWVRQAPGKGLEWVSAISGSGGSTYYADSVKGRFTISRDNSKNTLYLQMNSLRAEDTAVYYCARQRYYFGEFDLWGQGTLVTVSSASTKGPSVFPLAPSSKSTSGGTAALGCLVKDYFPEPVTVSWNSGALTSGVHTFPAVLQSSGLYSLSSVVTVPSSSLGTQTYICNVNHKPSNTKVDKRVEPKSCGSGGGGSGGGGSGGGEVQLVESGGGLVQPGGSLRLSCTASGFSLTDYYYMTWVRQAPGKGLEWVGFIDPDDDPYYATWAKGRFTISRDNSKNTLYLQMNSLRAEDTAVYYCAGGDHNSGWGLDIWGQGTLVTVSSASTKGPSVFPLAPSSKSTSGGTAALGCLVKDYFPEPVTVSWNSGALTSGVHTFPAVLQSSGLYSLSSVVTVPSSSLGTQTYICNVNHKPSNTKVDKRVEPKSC
light: SYELTQPPSVSVSPGQTASITCSGDKLGDKYAYWYQQKPGQSPVLVIYQDSKRPSGIPERFSGSNSGNTATLTISGTQAEDEADYYCQAFDYLYSLGVFGGGTKLTVLGQPKAAPSVTLFPPSSEELQANKATLVCLISDFYPGAVTVAWKADSSPVKAGVETTTPSKQSNNKYAASSYLSLTPEQWKSHRSYSCQVTHEGSTVEKTVAPTECSGSGGGGSGGGGSGGGEIVMTQSPSTLSASVGDRVIITCQASEIIHSWLAWYQQKPGKAPKLLIYLASTLASGVPSRFSGSGSGAEFTLTISSLQPDDFATYYCQNVYLASTNGANFGQGTKLTVLKRTVAAPSVFIFPPSDEQLKSGTASVVCLLNNFYPREAKVQWKVDNALQSGNSQESVTEQDSKDSTYSLSSTLTLSKADYEKHKVYACEVTHQGLSSPVTKSFNRGEC
notes: Fab-Fab: NVS2 Fab, (GSGGG)3 linker, NVS8 Fab; also called anti-BTC/anti-VEGF bispecific Fab; bispecific Fab-Fab
Kd (Human BTC [1]): 6 pM
Kd (Human VEGF165 [2]): 0.017 nM
EC50 [3]: 0.137 nM
IC50 (Human BTC-avitag-biotin [4]): 1.6 nM
IC50 (Human BTC-avitag-biotin [5]): 2.19 nM
IC50 (Human VEGF165 [16]): 1.2 nM

Other lines, results leading:

Kd (Human BTC [1]): 1.8 pM
Kd (Human VEGF165 [2]): 0.0065 nM
EC50 [3]: 0.194 nM
IC50 (Human BTC-avitag-biotin [4]): 1.82 nM
IC50 (Human BTC-avitag-biotin [5]): 2.12 nM
B1: NVS13 (bispecific antibody)
heavy: QVQLLESGGGLVQPGGSLRLSCAASGFTFSSYAMSWVRQAPGKGLEWVSGLGHVGYTTYTDSVKGRFTISRDNSKNTLYLQMNSLRAEDTAVYYCARDYLDFGYYFDVWGQGTLVTVSSASTKGPSVFPLAPSSKSTSGGTAALGCLVKDYFPEPVTVSWNSGALTSGVHTFPAVLQSSGLYSLSSVVTVPSSSLGTQTYICNVNHKPSNTKVDKRVEPKSCGSGGGGSGGGGSGGGEVQLVESGGGLVQPGGSLRLSCTASGFSLTDYYYMTWVRQAPGKGLEWVGFIDPDDDPYYATWAKGRFTISRDNSKNTLYLQMNSLRAEDTAVYYCAGGDHNSGWGLDIWGQGTLVTVSSASTKGPSVFPLAPSSKSTSGGTAALGCLVKDYFPEPVTVSWNSGALTSGVHTFPAVLQSSGLYSLSSVVTVPSSSLGTQTYICNVNHKPSNTKVDKRVEPKSC
light: SYELTQPLSVSVALGQTARITCSGDKIGKKYVHWYQQKPGQAPVLVIYDDSDRPSGIPERFSGSNSGNTATLTISRAQAGDEADYYCQAWDMQSVVFGGGTKLTVLGQPKAAPSVTLFPPSSEELQANKATLVCLISDFYPGAVTVAWKADSSPVKAGVETTTPSKQSNNKYAASSYLSLTPEQWKSHRSYSCQVTHEGSTVEKTVAPTECSGSGGGGSGGGGSGGGEIVMTQSPSTLSASVGDRVIITCQASEIIHSWLAWYQQKPGKAPKLLIYLASTLASGVPSRFSGSGSGAEFTLTISSLQPDDFATYYCQNVYLASTNGANFGQGTKLTVLKRTVAAPSVFIFPPSDEQLKSGTASVVCLLNNFYPREAKVQWKVDNALQSGNSQESVTEQDSKDSTYSLSSTLTLSKADYEKHKVYACEVTHQGLSSPVTKSFNRGEC
notes: Fab-Fab: NVS3 Fab, (GSGGG)3 linker, NVS8 Fab; also called anti-BTC/anti-VEGF bispecific Fab; bispecific Fab-Fab

Kd (Human BTC [1]): 2 pM
Kd (Human VEGF165 [2]): 0.016 nM
IC50 (Human BTC-avitag-biotin [4]): 2.17 nM
IC50 (Human BTC-avitag-biotin [5]): 2.32 nM
IC50 (Human VEGF165 [15]): 1.33 nM
B3: NVS14 (bispecific antibody)
heavy: QVQLLESGGGLVQPGGSLRLSCAASGFTFSRYWISWVRQAPGKGLEWVSYIDSTGTFINYADSVKGRFTISRDNSKNTLYLQMNSLRAEDTAVYYCARGGSLFDYWGQGTLVTVSSASTKGPSVFPLAPSSKSTSGGTAALGCLVKDYFPEPVTVSWNSGALTSGVHTFPAVLQSSGLYSLSSVVTVPSSSLGTQTYICNVNHKPSNTKVDKRVEPKSCGSGGGGSGGGGSGGGEVQLVESGGGLVQPGGSLRLSCTASGFSLTDYYYMTWVRQAPGKGLEWVGFIDPDDDPYYATWAKGRFTISRDNSKNTLYLQMNSLRAEDTAVYYCAGGDHNSGWGLDIWGQGTLVTVSSASTKGPSVFPLAPSSKSTSGGTAALGCLVKDYFPEPVTVSWNSGALTSGVHTFPAVLQSSGLYSLSSVVTVPSSSLGTQTYICNVNHKPSNTKVDKRVEPKSC
light: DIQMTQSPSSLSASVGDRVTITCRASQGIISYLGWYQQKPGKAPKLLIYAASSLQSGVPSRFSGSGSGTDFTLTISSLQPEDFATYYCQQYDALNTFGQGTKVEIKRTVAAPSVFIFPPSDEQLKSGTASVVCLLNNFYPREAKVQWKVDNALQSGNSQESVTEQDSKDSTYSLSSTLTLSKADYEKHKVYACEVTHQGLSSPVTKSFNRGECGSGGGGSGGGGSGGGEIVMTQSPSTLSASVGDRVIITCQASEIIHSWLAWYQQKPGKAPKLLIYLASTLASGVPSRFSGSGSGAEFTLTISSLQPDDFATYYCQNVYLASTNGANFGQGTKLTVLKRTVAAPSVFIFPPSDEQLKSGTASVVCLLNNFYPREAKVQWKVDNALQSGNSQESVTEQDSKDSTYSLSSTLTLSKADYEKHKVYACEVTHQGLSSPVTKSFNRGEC
notes: Fab-Fab: NVS4 Fab, (GSGGG)3 linker, NVS8 Fab; also called anti-BTC/anti-VEGF bispecific Fab; bispecific Fab-Fab
